# Source: patent US20090110632A1 (published 2009)
# Positions count from the first letter of the chain named. Names and notes keep the numbering of the source.
# B1: N56A HMFG1 (antibody, human IgG1, kappa, V domains shown)
# VH: QVQLVQSGAEVKKPGASVKVSCKASGYTFSAYWIEWVRQAPGKGLEWVGEILPGSANSRYNEKFKGRVTVTRDTSTNTAYMELSSLRSEDTAVYYCARSYDFAWFAYWGQGTLVTVSS
# VL: DIQMTQSPSSLSASVGDRVTITCKSSQSLLYSSNQKIYLAWYQQKPGKAPKLLIYWASTRESGVPSRFSGSGSGTDFTFTISSLQPEDIATYYCQQYYRYPRTFGQGTKVEIKR
# B2: N56C HMFG1 (antibody, human IgG1, kappa, V domains shown)
# VH: B1 VH with A56C
# VL: B1 VL
# B3: N56G HMFG1 (antibody, human IgG1, kappa, V domains shown)
# VH: B1 VH with A56G
# VL: B1 VL
# notes: also called N56G mutant
# Target: T1, MUC1-GST fusion protein containing seven variable number tandem repeat (VNTR) region (UniProt P15941 166-305)
# T1 construct: domain: seven variable number tandem, repeat (VNTR) region; Produced by the applicant; coated on the ELISA plate at 1 ug/ml; also called MUC1 antigen; antigen; not shown: GST fusion partner
# T1 sequence (P15941 126-265): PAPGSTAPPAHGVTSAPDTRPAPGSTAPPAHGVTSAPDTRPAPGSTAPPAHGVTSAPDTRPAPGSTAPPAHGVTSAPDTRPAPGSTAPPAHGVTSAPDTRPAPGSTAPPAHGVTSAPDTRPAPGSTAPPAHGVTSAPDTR
# Test: ELISA, plate-coated MUC1-GST; EC50 against HMFG1 standard of the same assay
# Protocol: 96-well plates (Nunc Maxisorp) were coated with 100 μl of MUC1 at 1 μg/ml in carbonate-bicarbonate buffer (Sigma C3041) overnight at 4° C. MUC1 antigen used here was produced by the applicant and is a MUC1-GST fusion protein containing seven variable number tandem, repeat (VNTR) region; VNTR is the antigen recognised by MUC1.
# Plates were then washed with a wash solution of PBS (phosphate buffered saline), +0.05% Tween 20, and serial dilutions of HMFG1 samples (wildtype protein or mutant) in incubation buffer (200 ml of PBS +0.2 g BSA (bovine serum albumin)) applied to the wells and incubated at 37° C. for 1 hour.
# Plates were again washed, and treated with detection antibody (1.0 μl HRP (horse radish peroxidase) anti-human IgG (BD Pharmingen, P# 555788, or Jackson P#209-035-056) +1 ml incubation buffer) at 37° C. for 30 min, washed with wash buffer, and developed with TMB (tetramethylbenzidine) reagent (100 μl TMB (Sigma, T8665) warmed to room temperature and 100 μl sulphuric acid was used to stop the reaction after approximately 6 minutes). The optical density of the plates was read at 450 nm on a Spectromax plate reader immediately after development.
row,Binder,fold increased affinity compared to HMFG1 standard (from EC50)
1,B1,~5 fold
2,B2,~20 fold
3,B3,~10 fold
